Measurements taken from IntAct's records for PubMed 20062059.

B1: GTP-binding protein RHO1 (Saccharomyces cerevisiae), P06780 (parent)
chain: MSQQVGNSIRRKLVIVGDGACGKTCLLIVFSKGQFPEVYVPTVFENYVADVEVDGRRVELALWDTAGQEDYDRLRPLSYPDSNVVLICFSIDLPDSLENVQEKWIAEVLHFCQGVPIILVGCKVDLRNDPQTIEQLRQEGQQPVTSQEGQSVADQIGATGYYECSAKTGYGVREVFEAATRASLMGKSKTNGKAKKNTTEKKKKKCVLL

Variants of: B1
Details: with sec3_yeast SEC3, P33332
Chain of sec3_yeast SEC3, P33332 (P33332 whole entry): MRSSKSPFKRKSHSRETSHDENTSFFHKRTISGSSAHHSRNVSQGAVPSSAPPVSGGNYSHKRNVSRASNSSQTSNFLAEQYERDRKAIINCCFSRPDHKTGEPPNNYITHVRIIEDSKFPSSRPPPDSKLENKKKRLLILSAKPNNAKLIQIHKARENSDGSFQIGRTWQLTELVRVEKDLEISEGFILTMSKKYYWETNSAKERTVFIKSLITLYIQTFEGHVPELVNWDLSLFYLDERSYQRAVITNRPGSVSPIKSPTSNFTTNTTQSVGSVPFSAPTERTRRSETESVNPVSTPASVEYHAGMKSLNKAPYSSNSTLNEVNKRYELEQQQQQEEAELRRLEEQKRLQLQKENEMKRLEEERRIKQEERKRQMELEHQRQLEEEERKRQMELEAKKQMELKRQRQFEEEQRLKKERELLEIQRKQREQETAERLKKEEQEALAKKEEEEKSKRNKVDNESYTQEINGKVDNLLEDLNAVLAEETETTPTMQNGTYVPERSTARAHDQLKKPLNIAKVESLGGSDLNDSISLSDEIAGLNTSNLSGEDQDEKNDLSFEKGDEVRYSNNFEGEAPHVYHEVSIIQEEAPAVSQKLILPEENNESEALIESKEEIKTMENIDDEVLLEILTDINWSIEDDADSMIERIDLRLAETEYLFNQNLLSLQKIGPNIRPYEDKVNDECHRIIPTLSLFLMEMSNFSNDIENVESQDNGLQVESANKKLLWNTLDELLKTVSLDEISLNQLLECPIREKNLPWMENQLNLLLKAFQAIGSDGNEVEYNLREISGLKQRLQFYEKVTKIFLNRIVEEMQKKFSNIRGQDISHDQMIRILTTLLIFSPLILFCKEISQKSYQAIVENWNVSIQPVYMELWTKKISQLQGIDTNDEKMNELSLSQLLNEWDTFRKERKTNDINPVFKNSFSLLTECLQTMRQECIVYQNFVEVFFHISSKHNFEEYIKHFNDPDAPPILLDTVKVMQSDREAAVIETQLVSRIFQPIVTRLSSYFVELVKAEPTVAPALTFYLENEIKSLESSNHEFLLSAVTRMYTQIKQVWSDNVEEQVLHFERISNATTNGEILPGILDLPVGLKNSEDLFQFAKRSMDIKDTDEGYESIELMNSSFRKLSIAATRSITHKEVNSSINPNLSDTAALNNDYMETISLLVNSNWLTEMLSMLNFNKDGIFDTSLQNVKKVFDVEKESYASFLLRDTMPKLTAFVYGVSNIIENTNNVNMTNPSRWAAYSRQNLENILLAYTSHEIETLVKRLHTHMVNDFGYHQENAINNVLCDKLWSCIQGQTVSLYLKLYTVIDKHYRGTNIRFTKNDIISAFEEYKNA

Variant	effect of a mutation on the interaction
MSQQVGNSIRRKLVIVGDGACGKTCLLIVFSKGQFPEVYVPTVFENYVADVEVDGRRVELALWDTAGAEDYDRLRPLSYPDSNVVLICFSIDLPDSLENVQEKWIAEVLHFCQGVPIILVGCKVDLRNDPQTIEQLRQEGQQPVTSQEGQSVADQIGATGYYECSAKTGYGVREVFEAATRASLMGKSKTNGKAKKNTTEKKKKKCVLL [Q68A]	disrupting interaction
MSQQVGNSIRRKLVIVGDGACGKTCLLIVFSKGQFPEVYVPTVAENYVADVEVDGRRVELALWDTAGQEDYDRLRPLSYPDSNVVLICFSIDLPDSLENVQEKWIAEVLHFCQGVPIILVGCKVDLRNDPQTIEQLRQEGQQPVTSQEGQSVADQIGATGYYECSAKTGYGVREVFEAATRASLMGKSKTNGKAKKNTTEKKKKKCVLL [F44A]	disrupting interaction
MSQQVGNSIRRKLVIVGDGACGKTCLLIVFSKGQFPEVYVPTAFENYVADVEVDGRRVELALWDTAGQEDYDRLRPLSYPDSNVVLICFSIDLPDSLENVQEKWIAEVLHFCQGVPIILVGCKVDLRNDPQTIEQLRQEGQQPVTSQEGQSVADQIGATGYYECSAKTGYGVREVFEAATRASLMGKSKTNGKAKKNTTEKKKKKCVLL [V43A]	disrupting interaction
MSQQVGNSIRRKLVIVGDGACGKTCLLIVFSKGQFPEVYVPTVFENYVADVEVDGRRVELALWDTAGQEDYDALRPLSYPDSNVVLICFSIDLPDSLENVQEKWIAEVLHFCQGVPIILVGCKVDLRNDPQTIEQLRQEGQQPVTSQEGQSVADQIGATGYYECSAKTGYGVREVFEAATRASLMGKSKTNGKAKKNTTEKKKKKCVLL [R73A]	disrupting interaction
MSQQVGNSIRRKLVIVGDGACGKTCLLIVFSKGQFPEVYVPTVFENYVADVEVDGRRVELALWDTAGQEDADRLRPLSYPDSNVVLICFSIDLPDSLENVQEKWIAEVLHFCQGVPIILVGCKVDLRNDPQTIEQLRQEGQQPVTSQEGQSVADQIGATGYYECSAKTGYGVREVFEAATRASLMGKSKTNGKAKKNTTEKKKKKCVLL [Y71A]	disrupting interaction
